From publication PMC9138527 come the findings set out here.

What all share (assay): EMSA
(In general: A gel shift assay detects complexes by their altered migration in electrophoresis.)

For data set [1], the system named is Protamine-like proteins mixture (PL-II, PL-III, PL-IV), 10 nM Cr(VI)-exposed mussels (Mytilus galloprovincialis). The settings on record: mussels exposed to 10 nM Cr(VI), DNA (150 ng pGEM3 or 450 ng sperm DNA) plus PLs in ultrapure water, 30 uL, 5 min, room temperature, TBE to 1x added just before the run, 1% (plasmid) or 0.6% ….
The test system of data set [2] is Protamine-like proteins mixture (PL-II, PL-III, PL-IV), 100 nM Cr(VI)-exposed mussels (Mytilus galloprovincialis). The settings on record: mussels exposed to 100 nM Cr(VI), DNA (150 ng pGEM3 or 450 ng sperm DNA) plus PLs in ultrapure water, 30 uL, 5 min, room temperature, TBE to 1x added just before the run, 1% (plasmid) or 0.6% ….
The subject of data set [3] is Protamine-like proteins mixture (PL-II, PL-III, PL-IV), unexposed mussels (Mytilus galloprovincialis). To be noted: DNA (150 ng pGEM3 or 450 ng sperm DNA) plus PLs in ultrapure water, 30 uL, 5 min, room temperature, TBE to 1x added just before the run, 1% (plasmid) or 0.6% ….
Data set [4] relates to Protamine-like proteins mixture (PL-II, PL-III, PL-IV), 1 nM Cr(VI)-exposed mussels (Mytilus galloprovincialis). The settings on record: mussels exposed to 1 nM Cr(VI); saturation not reached; DNA (150 ng pGEM3 or 450 ng sperm DNA) plus PLs in ultrapure water, 30 uL, 5 min, room temperature; TBE to 1x added just before the run; 1% (plasmid) or 0.6% ….
Setting [5] is: scale: wt/wt protein/DNA at almost complete saturation.

pGEM3 plasmid: the binding signal (wt/wt protein/DNA at saturation) in data set [1] is 0.8; in data set [2], 0.8; in data set [3] it was 0.8; in data set [4], above 1.8.
As to sperm genomic DNA, the binding signal in data set [1] (setting [5]) was 0.6; in data set [2] (setting [5]), 0.6; in data set [3] (unexposed, scale: wt/wt protein/DNA at almost complete saturation), 0.6.
